Laboratory results reported in the DeepSol protein solubility set.

Assay: soluble on expression in E. coli; label from the status in PepcDB or PDB records

| Sequence | soluble on expression in E. coli |
| --- | --- |
| MSLNERAKIKIIPLGGINEIGKNITAIEYKEDIIIIDCGLKFPDDDMFGIDIVIPDVSYLIKNSEKIKGIFLTHGHEDHIGALPYVLRQLNVPVYGTKLTLGIVETKLKEHGLLASTELVRVKPKDIIKLDSVSVEFIKTNHSIADSVAIAVHTPLGVVLHTGDFKIDYTPIDGEMMDFGRLAELGRKGVLVLMADSTNVERPGYTMTEKVVGETFLRLFGKAKGRLIVATFASNVHRIQQIITAAEAYEKKVAVSGRSMENIVQVAIELGYLTVGKDVLVPVDQISKYPNEKIVVITTGSQGEPMSALARMAASEHRKINVIPGDTVIISATPIPGNEKFVSKVINQLFKKGAQVIYDSQEKIHVSGHACQEELKLMQALVKPKFFVPVHGEYRHLKKHGELAMEVGLSEKNLLIPENGDVIEVAREGHHHHHH | soluble |
| MTWKNFGFEIFGEKYGQEELEKRIKDEHTPPPDSPVFGGLKLKLKKEKFKTLFTLGTTLKGFRRATHTVGTGGIGEITIVNDPKFPEHEFFTAGRTFPARLRHANLKYPDDAGADARSFSIKFADSDSDGPLDIVMNTGEANIFWNSPSLEDFVPVEEGDAAEEYVYKNPYYYYNLVEALRRAPDTFAHLYYYSQVTMPFKAKDGKVRYCRYRALPGDVDIKEEDESGRLTEEEQRKIWIFSRHENEKRPDDYLRKEYVERLQKGPVNYRLQIQIHEASPDDTATIFHAGILWDKETHPWFDLAKVSIKTPLSPDVLEKTAFNIANQPASLGLLEAKSPEDYNSIGELRVAVYTWVQHLRKLKIGSLVPAGQNAIYNVEVETGDREHAGTDATITIRITGAKGRTDYLKLDKWFHNDFEAGSKEQYTVQGFDVGDIQLIELHSDGGGYWSGDPDWFVNRVIIISSTQDRVYSFPCFRWVIKDMVLFPGEATLPFNEVPAIVSEQRQKELEQRKLTYQWDYVSDDMPGNIKAKTHDDLPRDVQFTDEKSRSYQESRKAALVNLGIGSLFTMFENWDSYDDYHILYRNWILGGTPNMADRWHEDRWFGYQFLNGANPVILTRCDALPSNFPVTNEHVNASLDRGKNLDEEIKDGHIYIVDFKVLVGAKSYGGPVLEDIGYKVPDHLKHDEADIRYCAAPLALFYVNKLGHLMPIAIQINQEPGPENPIWTPHEENEHDWMMAKFWLGVAESNFHQLNTHLLRTHLTTESFALSTWRNLASAHPIFKLLQPHIYGVLAIDTIGRKELIGSGGIVDQSLSLGGGGHVTFMEKCFKEVNLQDYHLPNALKKRGVDDPSKLPGFYYRDDGLALWEAIETFIGEIIAIFYKNDDDVKRDNEIQSWIYDVHKNGWRVNPGHQDHGVPASFESREQLKEVLTSLVFTFSCQHAAVNFSQKDHYGFTPNAPAILRHPPPKKKGEATLQSILSTLPSKSQAAKAIATVYILTKFSEDERYLGNYSATAWEDKDALDAINRFQDKLEDISKKIKQRNENLEVPYIYLLPERIPNGTAI | soluble |
| MAHHHHHHMLRIGRTLLAEVTTINSTTASVSGRLIRIRKKSKWIDRRSTRVPHNGKDIWYFGDQPSCALCHIRFRYKQDYEAHKESELHVNRLRWVETMNWWRETGEPAYLKASNEQWEWFEQHVLPTKAQEMGCTLDEARRVYRQAIMTETPTWHRPLQCPTVKQEVQEPRDQRWPASPKW | not soluble |
| MSLNDQYEALYQTFRWLVPTQFNIADACCHRWAASSPDARRIAIYYEDEAGNREVWTYARLAEAANQLANGLVKMGVERGDRVGVVLGQRPETVVAHMAIYSVGAVVLPLSPLFGPEALESRLRDADARVAIVDYASSANLLAISDNCPNLHQIIGIGFADERVLPWRSLLARQPNEFKMVATRASDPAILMYTSGTTGAPKGALLPHSVLIGNLPGFVASQDWFPRPGDVFWSPADWAWTGGMMDALLPTLYFGHPIVGTRGRFTPERAFELMERYQVTNTFLFPTALKMMMKSVPEPRGRYQLALRSIMSAGESVGETVFEWCEQALGITPNEMFGQTELNYVVGNSNRRWPARPGSMGRPYPGHRVAVIDEAGRPVKPGETGEVALNRFDIHGFPDPVLFLGYWRNEAATAAKFTDDWCRTGDLASIDADGYLWYAGRADDVFKSAGYRIGPGEIENCLLGHPAVANAAVVPKPDAERGALVKAYVVLTPEYQGRDPDSITQVLQEHVRDRLAPYEYPKEIEYVDALPMTTTGKIQRAVLRRREAERASGAHSEGHHHHHH | not soluble |
| MEDNRLVINRHRATQVLFQLVNISTQLSYQFFCKDSVLLLRIVQKIQSNSWLTSCCARKTVTTLRIKTQPANNKH | not soluble |
| MGSDKIHHHHHHQPPFPAPPAVRDIDCLEQDLMVYARALPQPDAPLLTLQDQERQTGFFLRRFFAAWDMRAPSMPRHTMFADLRATLDGKGWGANLLPVPPARTESLWQRCRTGEYPSLAVPAIITGNTSLRMAPDDEPFFRDPARAGEGYPFDYFQYSALWAGMPVFVVHASSDGGWLLCETPLAAGWVRARDVAYVDSGFMNAYRTGMYAAVVADDTPLRTAEGRWVLTAHTGAVFPVDKADAAGLVLRVPVRGADGGAGIRLVHVSYGAAARMPLPLTPVAVAMVGNGMMRQPYGWGGLLENRDCSAAMHDLFAPFGIWLPRNSSQQARAGALVSLEEMTPPQREAHILEQGVPFFSFIWMRGHIGLYLGPDRQDCAAGKPLMFHNVWGIRTGGGRAPEGRLVIGRAVVTTLHAGEEYPQVRKNWMLDRIRGLTLLPPQVP | not soluble |
| MSLKKFQHEFWTATSGDLTQRRTPLATPDYQSTSAAAVKIIIDPADRHQPWLGGGAAITDSAAYLLWSVMSAEQRRALLTELFDPDQGGFSSVRVPLGSCDFQSQDFYTYDDVPYGEHDQKLEQFSIGTGQPGAPDATKDLKHIVPVLQEILAINPAVKVIASPWSAPAWMKNTGHLTHGGHLRFGEFTGNGYTEENRFEYIYAQYFIRYIEAYQKLGIPIYGLTIQNEPSNAAHWPAMIWTVPQLADFGYRYLRPALNHSFPDTKLYLLDDSFHALTKPITAEVTPEQAAAFDGLAVHTYSGPYDNLYHANRAYPNWSTIMTERRCMMTDTPEEAAHIMFGIIGNWLVHNGLSMITLWNLALDERGLPNAADSTGREGVVTIDHTTGKVQRNLEYFMLRNFGQDVSVGATVIGSTNYTRDGYTGGLGSVAFLGTAGDIAAHLYNPTAQPIQAAVTINGNGANWQLVTVPPYGTVTLHKSDAPLNTTNVPVDDEFPLNPTPANHSDVAPGQHEGHHHHHH | not soluble |
| MGSSHHHHHHGKTIFVIVPTNEEQVAFLEALAKQDELNFDWQNPPTEPGQPVVILIPSDMVEWFLEMLKAKGIPFTVYVEEGGSENLYFQGGGGGGSRPYGATFIAWGLAFALRAWRCLPRERVHMCRAAHRLADAKMRQRGVGKVLMPYTGASRLMPVASYSRGNRLPSCSSTEATTRCHGFLAIGSRSPTPTHQARVDMGDNDITANSSGKTSGAAAGSAPSSCDLFLSASALESSAQFLALTHVASRQEPSSSITDRNAASVTPSGSRSASGRRAPRRSHEPFTCMSRACALDFTTLSEHGSEVPSVEPASLSAMQPTTSSSSRMHGCTGAAMTTVSLPQTPVVSGAVQSPAWLPAELARTFSDSKTPLSVCSQPSKVGPSYSQMDTLSPPTYEEAVLSSSRSSSSPRIAVLSTTMRSQRLSPAVARDGAP | soluble |
| SNATAFVPALVASGLPNEKFCFEGFLPQKKGRMTKLKSLVDEHRTMVFYESPHRLLKTLTQFAEYFGPERQVSVSREISKIHEETVRGTLSELIEHFTATDPRGEIVIVLAGIDD | soluble |
| MGSDKIHHHHHHMRKMAVQKLPEKDFFAPLKAWKFLVRKPVTIEVPNKIRREASERYRGFHVNDWGKCIGCGTCAKICPTDAITMVEVPDLTQEDGKLPQRPVIDYGRCSFCALCVDICTTGSLKMTREYIHISEDPEDFIFMPTDKGLNAKKGLYEFGKAPLGWVRDENSELLDLERIEMPVEPPEVRIKSFIEIVKGYSREQAMQEAARCVECGVCTYTCPEHMDIPQYIKSVYEDNLEEGLRWLYRTNPLSMVCGRVCTHRCETACSVGVRGEPVAIQWLKRYIVDSIPLERYGEILDIKPERKGKSVGIIGSGPAGLAAAYFLATMGYDVTIYESESKPGGVMRYGIPKYRLPDEALDKDIAFIEALGVKILLNTRVVQDVSFEDVRKRHDVVFLATGFGLGRSTGVPGTDHPDVKQALPLLKMIRDYLRGDGPKPPVPERLVVIGGGNVAMDISRSMARLQFMEYGRVNVQVLSLEGCFEDMPADMEEIEEALEEGIVINPGWGPMEVVIENDRIKGVKFKKCVSVFDGEGRFNPQFDEKEQIFVEADMVVEAIGQAPDYSYLPEEIRSKLEFFRGRIKTNEYNQTSVEWLFAGGDIVHGPDIIHGIADGYAAAKGIDMYLRKEK | not soluble |
| GPGSMMEGSPSEVHVHSSMAMGLQERPPLELVSHASEVSCLTINDNYDMWNASMYPNLNSGFDASLTSATTPDTTVARFAPAMRPHRKQQLSHQMMPLPARGEQTMSDIDSEVVLWDRPPTQDVLGSPAASGL | soluble |
| MGSDKIHHHHHHMPKSKSQKNKLRPRDSKGRFTPLAKAKRTVVSRSRSRSRSASRGARQSRSVGRPMSRRNSVRSISTHTAKSPSLVLVISGSPSPRRRRPSTRRSSSRRSVVRSVSRGSKSRRSSSRGSVYGRTGRSRSSKRSRSRSRPRTRSGSRSSSRSRSGSRRSSRRRSRRRSSSKARGRRASTAKKTPAKRRSRSRSQQKVKRSMSRKG | not soluble |
| MEAHNQFLKTFQKERHDMKEAEKDEILLMENSRRFVMFPIKYHEIWAAYKKVEASFWTAEEIELAKDTEDFQKLTDDQKTYIGNLLALSISSDNLVNKYLIENFSAQLQNPEGKSFYGFQIMMENIYSEVYSMMVDAFFKDPKNIPLFKEIANLPEVKHKAAFIERWISNDDSLYAERLVAFAAKEGIFQAGNYASMFWLTDKKIMPGLAMANRNICRDRGAYTDFSCLLFAHLRTKPNPKIIEKIITEAVEIEKEYYSNSLPVEKFGMDLKSIHTYIEFVADGLLQGFGNEKYYNAVNPFEFMEDVATAGKTTFFEKKVSDYQKASDMSKSATPSKEINFDDDF | soluble |
| MSITQYLTEEHRKCDQIYAEVEKAVNEGNWEKAKELFKEFKEKTLLHFKKEEEVLFPEFEQRTGIVMGPTQVMRMEHDQARELLERMEKALEEKNKDEFLSLGESLMILIQQHNMKEEQILYPMSDQNLNAEKMVSKMAELGEV | not soluble |
| MSLRFDFHTHTVFSDGELIPAELVRRARVLKHRAIAITDHADFSNYKELIEKTTIAKEELKKYWDDIIVIVGVELTHIPPKSIPKMAKKAKDLGAEIVVVHGETVVEPVEEKTNYYASISEDVDILAHPGFIDKETAENLKENDIFVEITSRRGHNITNGYVANIAREFGLKTLINTDTHAPEDLIDDEFAKKVGLGAGLTNKELENTLLHYPKELLKREGHHHHHH | soluble |
| MSLAEPLTVSPELTANYAYFFDLDGTLAEIKPHPDQVVVPHKILQLLDRLAAHNAGALALISGRSMTELDALAKPFRFPLAGVHGAERRDISGKTHIVRLPEAVVREVEALLRSTLAALPGTELETKGMAFALHYRQAPEHEAALLALAQHVTQHWPQLALQPGKCVVEIKPKGTNKGEAIAAFMQEAPFTGRIPVFVGDDLTDEAGFGVVNHAGGISVKVGVGATQAAWRLESVPDVWRWLEQINYPQQEQQVMNNRRDGYESFSRSIEGHHHHHH | soluble |
